The target in assay [1] is T1, monomeric human CEA extracellular domain (CEA ECD; CEACAM5) (human, UniProt P06731 35-685).
T1 construct: extracellular domain; not tied to the assay protein; also called CEACAM5 (CEA)
T1 sequence (looked up): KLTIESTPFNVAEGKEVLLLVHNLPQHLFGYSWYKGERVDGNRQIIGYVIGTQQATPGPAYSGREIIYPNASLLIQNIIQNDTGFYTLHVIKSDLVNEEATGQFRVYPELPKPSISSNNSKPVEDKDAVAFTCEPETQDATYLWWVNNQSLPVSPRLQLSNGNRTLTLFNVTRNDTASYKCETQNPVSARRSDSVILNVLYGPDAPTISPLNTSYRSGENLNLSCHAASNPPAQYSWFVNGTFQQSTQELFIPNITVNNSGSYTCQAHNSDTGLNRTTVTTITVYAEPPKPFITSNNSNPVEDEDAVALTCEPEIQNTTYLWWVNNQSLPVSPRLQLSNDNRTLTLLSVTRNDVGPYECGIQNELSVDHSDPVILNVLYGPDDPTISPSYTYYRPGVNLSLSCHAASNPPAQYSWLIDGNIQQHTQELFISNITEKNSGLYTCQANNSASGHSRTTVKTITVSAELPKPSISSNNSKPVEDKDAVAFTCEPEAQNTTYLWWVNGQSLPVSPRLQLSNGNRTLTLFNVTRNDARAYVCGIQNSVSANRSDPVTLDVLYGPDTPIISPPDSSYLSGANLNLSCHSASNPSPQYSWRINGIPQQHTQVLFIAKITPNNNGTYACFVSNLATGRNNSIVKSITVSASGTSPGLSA
In words: BLI (Octet), antibody on anti-human Fc sensor, monomeric ECD analyte, 1:1 model. The protocol:
(§1) The Octet systems use propriety BLI to analyze biomolecular interaction. […] Data were analyzed using Octet Data Analysis Software 9.0 (ForteBio) and fitted to the 1:1 binding model. Equilibrium dissociation constants (KD) were calculated by the […].

Assay [2] concerns the target T2, human HER2 expressed on transiently transfected CHO cells (human, UniProt P04626 23-1255).
T2 construct: whole, on cells; also called HER2-expressing CHO cells; CHO-HER2
In words: statement in the macrophage ADCC assay with HER2-expressing CHO cells.
Description: Monocyte-derived macrophages were generated by culturing monocytes for 7 days in the presence of GM-CSF. […] After 24 hours, CHO viability was assessed by flow cytometry as a readout of ADCC activity.
Monocytes were isolated from human peripheral blood mononuclear cells (PBMCs) using magnetic bead-based negative selection and cultured 7 days in the presence of GM-CSF to generate macrophages. A CHO cell line was engineered to overexpress human HER2 using standard transient transfection methods and used in assays 2 days after transfection. […] After 24 hours, CHO frequency was assessed by flow cytometry as a readout of ADCC activity.

Assay [3] has as its target T3, monomeric human HER2 extracellular domain (HER2 ECD) (human, UniProt P04626 23-652).
T3 construct: extracellular domain; not tied to the assay protein; also called Hu Her2
In words: BLI (Octet), antibody on anti-human Fc sensor, monomeric ECD analyte, 1:1 model. An excerpt: (§2) The Octet systems use propriety BLI to analyze biomolecular interaction.

The target in assay [4] is T4, monomeric human DEC205 extracellular domain (DEC205 ECD) (human, UniProt O60449 28-1666).
T4 construct: extracellular domain; none tied to the assay protein
The description is as above. On the procedure: as §1

For assay [5], the target named is T5, monomeric human CD40 extracellular domain (CD40 ECD) (human, UniProt P25942 21-193).
T5 construct: extracellular domain; it is not tied to the assay protein; also called Hu CD40
Described as above.
Description: as §2

Results on two molecules are retold here after patent US20190336615A1 (SILVERBACK THERAPEUTICS, published 2019).

T4 sequence (O60449 28-1666): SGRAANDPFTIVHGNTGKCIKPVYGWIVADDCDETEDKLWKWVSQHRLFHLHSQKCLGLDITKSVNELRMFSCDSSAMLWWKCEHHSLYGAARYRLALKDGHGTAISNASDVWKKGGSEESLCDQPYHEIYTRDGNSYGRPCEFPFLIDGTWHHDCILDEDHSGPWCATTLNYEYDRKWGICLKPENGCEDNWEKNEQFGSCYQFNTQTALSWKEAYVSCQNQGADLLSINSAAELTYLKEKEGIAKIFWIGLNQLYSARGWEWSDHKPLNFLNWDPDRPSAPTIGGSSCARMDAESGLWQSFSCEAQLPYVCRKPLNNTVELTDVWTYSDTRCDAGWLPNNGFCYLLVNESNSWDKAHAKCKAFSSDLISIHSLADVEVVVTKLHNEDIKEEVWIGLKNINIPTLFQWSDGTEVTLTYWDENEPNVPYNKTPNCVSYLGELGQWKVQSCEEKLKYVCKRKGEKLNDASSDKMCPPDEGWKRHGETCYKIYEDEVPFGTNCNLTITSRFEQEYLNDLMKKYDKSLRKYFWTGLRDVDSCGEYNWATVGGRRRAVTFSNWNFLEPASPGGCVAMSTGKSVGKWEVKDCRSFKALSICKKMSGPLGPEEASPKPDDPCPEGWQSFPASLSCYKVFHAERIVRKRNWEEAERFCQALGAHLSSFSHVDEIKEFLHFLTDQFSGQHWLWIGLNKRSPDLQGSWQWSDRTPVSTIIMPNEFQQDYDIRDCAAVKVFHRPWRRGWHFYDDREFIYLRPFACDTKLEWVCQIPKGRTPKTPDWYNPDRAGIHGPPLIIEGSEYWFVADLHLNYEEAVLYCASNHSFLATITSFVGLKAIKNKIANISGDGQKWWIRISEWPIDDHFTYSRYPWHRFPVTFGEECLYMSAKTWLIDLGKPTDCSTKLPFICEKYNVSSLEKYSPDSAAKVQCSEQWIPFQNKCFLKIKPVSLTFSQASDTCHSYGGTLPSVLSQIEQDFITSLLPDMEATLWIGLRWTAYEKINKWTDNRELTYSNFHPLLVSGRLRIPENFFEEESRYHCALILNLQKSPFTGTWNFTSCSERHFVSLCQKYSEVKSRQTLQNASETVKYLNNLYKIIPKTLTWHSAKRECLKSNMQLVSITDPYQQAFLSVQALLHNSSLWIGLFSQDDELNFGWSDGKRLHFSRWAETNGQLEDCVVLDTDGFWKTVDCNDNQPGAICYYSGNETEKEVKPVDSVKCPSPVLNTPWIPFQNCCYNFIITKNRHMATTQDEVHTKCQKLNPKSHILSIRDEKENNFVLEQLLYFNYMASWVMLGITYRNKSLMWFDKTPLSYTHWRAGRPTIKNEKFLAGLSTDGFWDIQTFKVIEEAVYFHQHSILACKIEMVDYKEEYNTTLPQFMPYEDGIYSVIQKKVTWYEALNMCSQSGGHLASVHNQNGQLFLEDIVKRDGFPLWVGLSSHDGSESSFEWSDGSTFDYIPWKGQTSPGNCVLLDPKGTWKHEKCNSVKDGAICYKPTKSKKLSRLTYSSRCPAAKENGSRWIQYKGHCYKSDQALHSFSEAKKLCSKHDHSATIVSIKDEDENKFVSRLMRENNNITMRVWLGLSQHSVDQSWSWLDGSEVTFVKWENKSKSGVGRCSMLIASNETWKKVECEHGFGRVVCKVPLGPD
T5 sequence (P25942 21-193): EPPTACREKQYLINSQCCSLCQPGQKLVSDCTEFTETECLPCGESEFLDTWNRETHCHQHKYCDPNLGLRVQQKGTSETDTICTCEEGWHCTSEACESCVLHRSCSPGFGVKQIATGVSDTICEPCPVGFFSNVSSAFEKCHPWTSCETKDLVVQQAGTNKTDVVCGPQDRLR

B1: parental anti-CD40 monoclonal antibody (SBT-040G1) (antibody, human IgG1, kappa)
heavy: not shown
light: DIQMTQSPSSVSASVGDRVTITCRASQGIYSWLAWYQQKPGKAPNLLIYTASTLQSGVPSRFSGSGSGTDFTLTISSLQPEDFATYYCQQANIFPLTFGGGTKVEIKRTVAAPSVFIFPPSDEQLKSGTASVVCLLNNFYPREAKVQWKVDNALQSGNSQESVTEQDSKDSTYSLSSTLTLSKADYEKHKVYACEVTHQGLSSPVTKSFNRGEC
notes: Human IgG1 anti-CD40; also called Parental anti-CD40 antibody; Parental Anti-CD40 Antibody
Consider B1, for which the binding result in assay [1] was “no binding (tested: 1.2 nM to 300 nM)”; in assay [2] it was “no binding”; in assay [3], “no binding (tested: 1.2 nM to 300 nM)”.

B2: parental anti-HER2 monoclonal antibody (SBT-050G1), pertuzumab (antibody, human IgG1, kappa)
heavy: not shown
light: not shown
notes: also called Parental anti-HER2 antibody; Parental Anti-HER2 Antibody
As to B2, the binding result in assay [4] and in assay [5] was “no binding (tested: 1.2 nM to 300 nM)” each time.
